Test results from patent US20090053227A1.

Biological target: Kv3.2a (potassium channel Kv3.2a, KCNC2 transcript variant 1) (human) (UniProt Q96PR1)
Assay: flow cytometry on unpermeabilized Kv3.2a-CHO 1A5 cells

Sequence of UniProt Q96PR1 (Q96PR1 other isoform, or with tags, fused parts or gaps mutant): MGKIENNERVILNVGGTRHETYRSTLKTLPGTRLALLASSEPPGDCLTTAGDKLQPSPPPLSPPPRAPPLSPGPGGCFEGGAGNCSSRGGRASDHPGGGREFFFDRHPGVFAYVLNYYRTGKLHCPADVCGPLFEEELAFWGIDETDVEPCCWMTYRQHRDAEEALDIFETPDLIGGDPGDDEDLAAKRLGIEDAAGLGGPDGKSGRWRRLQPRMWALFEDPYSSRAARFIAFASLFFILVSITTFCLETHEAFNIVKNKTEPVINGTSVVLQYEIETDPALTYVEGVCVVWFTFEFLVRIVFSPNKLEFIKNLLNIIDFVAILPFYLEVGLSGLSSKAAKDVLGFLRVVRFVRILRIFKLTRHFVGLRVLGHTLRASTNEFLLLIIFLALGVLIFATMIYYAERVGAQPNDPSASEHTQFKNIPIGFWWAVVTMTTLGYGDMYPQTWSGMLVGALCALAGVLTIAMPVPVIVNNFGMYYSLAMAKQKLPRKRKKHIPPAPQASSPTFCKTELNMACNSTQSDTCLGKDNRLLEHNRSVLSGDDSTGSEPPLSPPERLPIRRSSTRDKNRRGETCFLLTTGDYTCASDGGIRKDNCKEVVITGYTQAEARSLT

Substance: Neg control
- percentage shift into gate: 0.01%
